# Source: patent US20190030139A1 (MAYO FOUNDATION FOR MEDICAL EDUCATION AND RESEARCH, published 2019)
# B1: AMPKα1 4KR mutant (FLAG-tagged, expressed in HCT116 cells) (enzyme)
# chain: MRRLSSWRKMATAEKQKHDGRVKIGHYILGDTLGVGTFGKVKVGKHELTGHKVAVKILNRQKIRSLDVVGRIRREIQNLKLFRHPHIIKLYQVISTPSDIFMVMEYVSGGELFDYICKNGRLDEKESRRLFQQILSGVDYCHRHMVVHRDLKPENVLLDAHMNAKIADFGLSNMMSDGEFLRTSCGSPNYAAPEVISGRLYAGPEVDIWSSGVILYALLCGTLPFDDDHVPTLFKKICDGIFYTPQYLNPSVISLLKHMLQVDPMKRATIKDIREHEWFKQDLPRYLFPEDPSYSSTMIDDEALKEVCEKFECSEEEVLSCLYNRNHQDPLAVAYHLIIDNRRIMNEAKDFYLATSPPDSFLDDHHLTRPHPERVPFLVAETPRARHTLDELNPQRSKHQGVRKAKWHLGIRSQSRPNDIMAEVCRAIKQLDYEWKVVNPYYLRVRRKNPVTSTYSKMSLQLYQVDSRTYLLDFRSIDDEITEARSGTATPQRSGSVSNYRSCQRSDSDAEAQGKSSEVSLTSSVTSLDSSPVDLTPRPGSHTIEFFEMCANLIKILAQ
# notes: also called 4KR AMPKα1; AMPKα 4KR mutant; not shown: FLAG tag
# B2: LKB1 (enzyme, UniProt Q15831 1-430, looked up)
# chain: MEVVDPQQLGMFTEGELMSVGMDTFIHRIDSTEVIYQPRRKRAKLIGKYLMGDLLGEGSYGKVKEVLDSETLCRRAVKILKKKKLRRIPNGEANVKKEIQLLRRLRHKNVIQLVDVLYNEEKQKMYMVMEYCVCGMQEMLDSVPEKRFPVCQAHGYFCQLIDGLEYLHSQGIVHKDIKPGNLLLTTGGTLKISDLGVAEALHPFAADDTCRTSQGSPAFQPPEIANGLDTFSGFKVDIWSAGVTLYNITTGLYPFEGDNIYKLFENIGKGSYAIPGDCGPPLSDLLKGMLEYEPAKRFSIRQIRQHSWFRKKHPPAEAPVPIPPSPDTKDRWRSMTVVPYLEDLHGADEDEDLFDIEDDIIYTQDFTVPGQVPEEEASHNGQRRGLPKAVCMNGTEAAQLSTKSRAEGRAPNPARKACSASSKIRRLSAC
# notes: Cellular protein co-precipitated with FLAG-tagged AMPKα
# B3: AMPKα2 4KR mutant (FLAG-tagged, expressed in HCT116 cells) (enzyme)
# chain: MAEKQKHDGRVKIGHYVLGDTLGVGTFGKVKIGEHQLTGHKVAVKILNRQKIRSLDVVGRIKREIQNLKLFRHPHIIKLYQVISTPTDFFMVMEYVSGGELFDYICKHGRVEEMEARRLFQQILSAVDYCHRHMVVHRDLKPENVLLDAHMNAKIADFGLSNMMSDGEFLRTSCGSPNYAAPEVISGRLYAGPEVDIWSCGVILYALLCGTLPFDDEHVPTLFKKIRGGVFYIPEYLNRSVATLLMHMLQVDPLKRATIKDIREHEWFKQDLPSYLFPEDPSYDANVIDDEAVKEVCEKFECTESEVMNSLYSGDPQDQLAVAYHLIIDNRRIMNQASEFYLASSPPSGSFMDDSAMHIPPGLKPHPERMPPLIADSPRARCPLDALNTTRPKSLAVKKAKWHLGIRSQSKPYDIMAEVYRAMKQLDFEWKVVNAYHLRVRRKNPVTGNYVKMSLQLYLVDNRSYLLDFRSIDDEVVEQRSGSSTPQRSCSAAGLHRPRSSFDSTTAESHSLSGSLTGSLTGSTLSSVSPRLGSHTMDFFEMCASLITTLAR
# notes: also called quadruple K to R mutant (4KR); AMPKα 4KR mutant; not shown: FLAG tag
# B4: GST tagged AMPK β1 (other, UniProt Q9Y478 1-270, looked up)
# chain: MGNTSSERAALERHGGHKTPRRDSSGGTKDGDRPKILMDSPEDADLFHSEEIKAPEKEEFLAWQHDLEVNDKAPAQARPTVFRWTGGGKEVYLSGSFNNWSKLPLTRSHNNFVAILDLPEGEHQYKFFVDGQWTHDPSEPIVTSQLGTVNNIIQVKKTDFEVFDALMVDSQKCSDVSELSSSPPGPYHQEPYVCKPEERFRAPPILPPHLLQVILNKDTGISCDPALLPEPNHVMLNHLYALSIKDGVMVLSATHRYKKKYVTTLLYKPI
# notes: not shown: glutathione S-transferase tag of vector pGEX-4T-1
# B5: GST tagged AMPK β2 (other, UniProt O43741 1-272, looked up)
# chain: MGNTTSDRVSGERHGAKAARSEGAGGHAPGKEHKIMVGSTDDPSVFSLPDSKLPGDKEFVSWQQDLEDSVKPTQQARPTVIRWSEGGKEVFISGSFNNWSTKIPLIKSHNDFVAILDLPEGEHQYKFFVDGQWVHDPSEPVVTSQLGTINNLIHVKKSDFEVFDALKLDSMESSETSCRDLSSSPPGPYGQEMYAFRSEERFKSPPILPPHLLQVILNKDTNISCDPALLPEPNHVMLNHLYALSIKDSVMVLSATHRYKKKYVTTLLYKPI
# notes: as for B4
# B6: GST tagged AMPK γ1 (other, UniProt P54619 1-331, looked up)
# chain: METVISSDSSPAVENEHPQETPESNNSVYTSFMKSHRCYDLIPTSSKLVVFDTSLQVKKAFFALVTNGVRAAPLWDSKKQSFVGMLTITDFINILHRYYKSALVQIYELEEHKIETWREVYLQDSFKPLVCISPNASLFDAVSSLIRNKIHRLPVIDPESGNTLYILTHKRILKFLKLFITEFPKPEFMSKSLEELQIGTYANIAMVRTTTPVYVALGIFVQHRVSALPVVDEKGRVVDIYSKFDVINLAAEKTYNNLDVSVTKALQHRSHYFEGVLKCYLHETLETIINRLVEAEVHRLVVVDENDVVKGIVSLSDILQALVLTGGEKKP
# notes: as for B4
# Assays:
# LKB1 [1] = target: B2; experiment: FLAG-bead immunoprecipitation from HCT116 lysates, LKB1 immunoblot (FIG. 6F)
# [2] = target: T1, WT AMPKα2 (FLAG-tagged, expressed in HCT116 cells) (human, UniProt P54646 1-552); experiment: FLAG-bead immunoprecipitation from HCT116 lysates, LKB1 immunoblot (FIG. 5G)
# T1 construct: Precipitated from cell lysates with FLAG beads; ubiquitinated in part in cells; also called FLAG-AMPKα; not shown: FLAG tag
# [3] = target: T2, WT AMPKα1 (FLAG-tagged, expressed in HCT116 cells) (human, UniProt Q13131 1-559); experiment: FLAG-bead immunoprecipitation from HCT116 lysates, LKB1 immunoblot (FIG. 6F)
# T2 construct: Precipitated from cell lysates with FLAG beads; ubiquitinated in part in cells; also called FLAG-AMPKα; not shown: FLAG tag
# LKB1 [4] = target: B2; experiment: FLAG-bead immunoprecipitation from HCT116 lysates, LKB1 immunoblot (FIG. 5G)
# Purified His6-USP10 = target: T3, Purified His6-USP10 (human, UniProt Q14694 1-798); experiment: GST pull-down with recombinant proteins (FIG. 3A)
# T3 construct: also called His-USP10; recombinant USP10; not shown: His6 tag
# T3 sequence (Q14694 whole entry): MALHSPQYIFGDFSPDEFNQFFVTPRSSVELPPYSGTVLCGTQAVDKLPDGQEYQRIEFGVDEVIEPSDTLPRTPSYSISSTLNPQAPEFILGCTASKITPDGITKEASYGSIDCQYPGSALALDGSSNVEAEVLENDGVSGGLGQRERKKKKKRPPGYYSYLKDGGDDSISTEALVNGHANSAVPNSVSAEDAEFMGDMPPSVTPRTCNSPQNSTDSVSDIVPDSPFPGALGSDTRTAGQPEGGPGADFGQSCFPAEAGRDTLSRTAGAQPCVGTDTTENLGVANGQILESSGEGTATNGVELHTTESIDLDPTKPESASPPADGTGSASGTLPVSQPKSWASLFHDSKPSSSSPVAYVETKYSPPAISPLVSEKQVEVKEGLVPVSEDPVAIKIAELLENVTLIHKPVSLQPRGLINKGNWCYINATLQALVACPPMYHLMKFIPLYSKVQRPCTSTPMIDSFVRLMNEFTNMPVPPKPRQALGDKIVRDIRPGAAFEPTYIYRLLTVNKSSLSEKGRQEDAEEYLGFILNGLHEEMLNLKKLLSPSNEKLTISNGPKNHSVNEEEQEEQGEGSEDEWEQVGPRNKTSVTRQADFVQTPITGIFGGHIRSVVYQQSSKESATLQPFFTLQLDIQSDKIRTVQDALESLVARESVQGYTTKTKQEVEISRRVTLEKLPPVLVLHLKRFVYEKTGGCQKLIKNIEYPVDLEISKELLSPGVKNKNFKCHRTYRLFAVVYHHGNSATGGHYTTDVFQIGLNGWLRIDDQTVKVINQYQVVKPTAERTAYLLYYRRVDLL
# Protocol: Purified His6-USP10 was incubated with the indicated GST tagged AMPK subunits coupled to GSH-Sepharose. Proteins retained on Sepharose were then blotted with the indicated antibodies. FIGS. 3B-3D are immunoblots showing the interaction of USP10 with AMPKα in cells. HCT116 cell lysates were subjected to immunoprecipitation (IP) with control IgG, anti-USP10 (FIG. 3B), anti-AMPKα1 (FIG. 3C), anti-AMPKα2 (FIG. 3D) antibodies. The immunoprecipitates were then blotted with the indicated antibodies. […] 293T cells transfected with the indicated constructs were lysed, and lysates were incubated with anti-FLAG beads. Proteins retained on beads were blotted with the indicated antibodies. […] HCT116 cells infected with lentivirus encoding the indicated shRNAs were transfected with the indicated constructs. Cell lysates and Ni-NTA pulldowns were immunoblotted as indicated. -Glu, glucose starvation. FIG. 3G is a picture of an immunoblot showing that USP10 deubiquitinase activity is required for AMPK deubiquitination. The indicated constructs were transfected into USP10 knockdown cell lines, and cells were placed in medium without glucose for 4 hours. Cell lysates were incubated with anti-HA beads and immunoblotted with the indicated antibodies. -Glu, glucose starvation. FIG. 3H is a picture of an immunoblot showing deubiquitination of AMPKα2 in vitro by USP10. Ubiquitinated AMPKα2 was incubated with purified USP10 or USP10CA in vitro, and then blotted with indicated antibodies.
# Immunoprecipitation, immunoblotting, and in vitro pull-down assay—Cell lysates were prepared and immunoprecipitation and immunoblotting were performed as described elsewhere (Yuan et al., supra). In brief, cells were lysed with NETN buffer (20 mM Tris-HCl, pH 8.0, 100 mM NaCl, 1 mM EDTA, 0.5% Nonidet P-40) containing 50 mM β-glycerophosphate, 10 mM NaF, and 1 mg/ml each of pepstatin A and aprotinin.
binder,measurement,setting,value
B1,binding result,LKB1 [1],binds
B2,binding result,[2],binds
same,binding result,[3],binds
B3,binding result,LKB1 [4],binds
B4,binding result,Purified His6-USP10,no binding
B5,binding result,Purified His6-USP10,no binding
B6,binding result,Purified His6-USP10,no binding
